Positions count from the first letter of the chain named. Numbers in names are those of the source. Values belong to the binder of their own block, whether it stands above or below them.
Key:
human CD22 [1] = target: T1, human CD22 (human, UniProt P20273 20-687, limits assumed); test: ForteBio, antibody in the form of IgG, avid
T1 construct: CD22-llama-Fc and CD22-his are named only for the yeast library sorting; also called CD22 antigen

human CD22 [2] = target: T1, human CD22; test: ForteBio, antibody in the form of Fab, monovalent
[3] = target: T2, CD22-FITC protein (Acro Biosystem, Cat. No. SI2-HF2H6) (UniProt P20273 20-687, FITC label); test: flow cytometry of CAR-T cells stained with FITC-CD22 protein and APC anti-CD8, quadrant gate
T2 construct: Bought reagent; also called FITC-CD22 protein; CD22 protein
Protocol: Cell samples were stained with APC mouse anti-human CD8, PE anti-human EGFR and FITC-CD22 protein.
When the cells were cultured to the 6th or 7th day, the expression of CAR molecules, tEGFR molecules and CD8 on the cell surface was detected by flow cytometry. […] On day 6 of cell culture, approximately 5 ×10^5 cells were removed from each sample individually, and the medium was removed by centrifugation at 500 g. […] The mixtures were mixed well and incubated at 4° C. in the dark for 20 min. After completion of incubation, the cells were washed twice with PBS+1% HSA solution again, re-suspended in 200 μL of PBS+1% HSA solution, and then loaded onto the instrument for testing.

[4] = target: T3, CD22 antigen on the surface of target cells (Raji, REH, NALM6, JVM2, 3E09, 3D11) (human, UniProt P20273 20-847); test: cell-based or functional assay
[5] = target: T3, CD22 antigen on the surface of target …; test: cell-based or functional assay; remark: listed apart in the source
[6] = target: T3, CD22 antigen on the surface of target …; test: cell-based or functional assay; remark: listed apart in the source

- Kd (human CD22 [1]): 0.97 nM
- Response (human CD22 [1]): 0.81 nm
- koff (human CD22 [1]): 0.0002 s⁻¹
- kon (human CD22 [1]): 210000 M⁻¹ s⁻¹
B4: clone 28 anti-CD22 antibody in the form of IgG (antibody, V domains shown)
VH: QVQLQESGPGLVKPSETLSLTCTVSGGSISSYYWSWIRQPAGKGLEWIGRIYTSGSTNYNPSLKSRVTMSVDTSKNQFSLKLSSVTAADTAVYYCARDLYRDGMDVWGQGTTVTVSS
VL: DIQMTQSPSTLSASVGDRVTITCRASQSISSWLAWYQQKPGKAPKLLISDASSLESGVPSRFSGSGSGTEFTLTISSLQPDDFATYYCQQANTYSPTFGGGTKVEIK
notes: Fully human; tested 'in the form of IgG'

- Kd (human CD22 [1]): 0.82 nM
- Response (human CD22 [1]): 0.93 nm
- koff (human CD22 [1]): 0.0002 s⁻¹
- kon (human CD22 [1]): 240000 M⁻¹ s⁻¹
B5: clone 80 anti-CD22 antibody in the form of IgG (antibody, V domains shown)
VH: QVQLQESGPGLVKPSGTLSLTCAVSGGSISSSNWWSWVRQPPGKGLEWIGEIYHSGSTNYNPSLKSRVTISVDKSKNQFSLKLSSVTAADTAVYYCARLPGYESAFDIWGQGTMVTVSS
VL: EIVLTQSPGTLSLSPGERATLSCRASQSVSSSYLAWYQQKPGQAPRLLIYGASSRATGIPDRFSGSGSGTDFTLTISRLEPEDFAVYYCQQAGLFPYTFGGGTKVEIK
notes: as for B4

- Kd (human CD22 [2]): 13 nM
- Response (human CD22 [2]): 0.24 nm
- koff (human CD22 [2]): 0.0046 s⁻¹
- kon (human CD22 [2]): 360000 M⁻¹ s⁻¹
B6: clone 80 anti-CD22 antibody in the form of Fab (Fab, V domains shown)
VH: B5 VH
VL: B5 VL
notes: Tested 'in the form of Fab'

- percent of cells in Q1 (FITC-CD22 positive, APC-CD8 negative) [3]: 27.5%
- percent of cells in Q2 (FITC-CD22 positive, APC-CD8 positive) [3]: 17.6%
- positive rate of CD107a in the CD8+/CAR+ cell population, target cell 3D11 (CD22 knockout/knockdown Raji) [6]: 18.9%
- positive rate of CD107a in the CD8+/CAR+ cell population, target cell JVM2 [6]: 32.8%
- positive rate of CD107a in the CD8+/CAR+ cell population, target cell NALM6 [6]: 59.7%
- positive rate of CD107a in the CD8+/CAR+ cell population, target cell REH [6]: 62.3%
- positive rate of CD107a in the CD8+/CAR+ cell population, target cell raji [6]: 39.7%
B7: clone 80 CAR (CD22-targeted chimeric antigen receptor, clone 80 scFv with CD8α hinge and transmembrane region, 4-1BB and CD3z), on reporter cells or CAR-T cells (other)
chain: QVQLQESGPGLVKPSGTLSLTCAVSGGSISSSNWWSWVRQPPGKGLEWIGEIYHSGSTNYNPSLKSRVTISVDKSKNQFSLKLSSVTAADTAVYYCARLPGYESAFDIWGQGTMVTVSSGGGGSGGGGSGGGGSEIVLTQSPGTLSLSPGERATLSCRASQSVSSSYLAWYQQKPGQAPRLLIYGASSRATGIPDRFSGSGSGTDFTLTISRLEPEDFAVYYCQQAGLFPYTFGGGTKVEIKFVPVFLPAKPTTTPAPRPPTPAPTIASQPLSLRPEACRPAAGGAVHTRGLDFACDIYIWAPLAGTCGVLLLSLVITLYCNHRNKRGRKKLLYIFKQPFMRPVQTTQEEDGCSCRFPEEEEGGCELRVKFSRSADAPAYQQGQNQLYNELNLGRREEYDVLDKRRGRDPEMGGKPRRKNPQEGLYNELQKDKMAEAYSEIGMKGERRRGKGHDGLYQGLSTATKDTYDALHMQALPPRGSGEGRGSLLTCGDVEENPG
notes: Chimeric antigen receptor on the cell surface; also called clone80-bbz
- in vitro cell killing efficiency, target cells NALM6-ffLuc, 17 h, E:T 0.5:1 [4]: 15.3%
- in vitro cell killing efficiency, target cells NALM6-ffLuc, 17 h, E:T 1:1 [4]: 58.5%
- in vitro cell killing efficiency, target cells NALM6-ffLuc, 17 h, E:T 2:1 [4]: 90.5%
- in vitro cell killing efficiency, target cells REH-ffLuc, 17 h, E:T 0.5:1 [5]: -18.2%
- in vitro cell killing efficiency, target cells REH-ffLuc, 17 h, E:T 1:1 [5]: 40.2%
- in vitro cell killing efficiency, target cells REH-ffLuc, 17 h, E:T 2:1 [5]: 89%

Further lines, the binder ahead of its results:

B1: clone 17 anti-CD22 antibody in the form of IgG (antibody, V domains shown)
VH: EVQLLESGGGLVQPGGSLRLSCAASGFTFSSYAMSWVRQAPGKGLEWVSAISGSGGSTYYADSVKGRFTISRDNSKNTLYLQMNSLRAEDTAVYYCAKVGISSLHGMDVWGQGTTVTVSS
VL: B4 VL with S49Y, D50K, A91Y, N92E, T93R, Y94F, S95P, P96W
notes: as for B4
- Kd (human CD22 [1]): 1.6 nM
- Response (human CD22 [1]): 0.62 nm
- koff (human CD22 [1]): 0.0002 s⁻¹
- kon (human CD22 [1]): 130000 M⁻¹ s⁻¹

B2: clone 28 anti-CD22 antibody in the form of Fab (Fab, V domains shown)
VH: B4 VH
VL: B4 VL
notes: Tested 'in the form of Fab'
- Kd (human CD22 [2]): 0.94 nM
- Response (human CD22 [2]): 0.25 nm
- koff (human CD22 [2]): 0.00027 s⁻¹
- kon (human CD22 [2]): 280000 M⁻¹ s⁻¹

B3: clone 17 anti-CD22 antibody in the form of Fab (Fab, V domains shown)
VH: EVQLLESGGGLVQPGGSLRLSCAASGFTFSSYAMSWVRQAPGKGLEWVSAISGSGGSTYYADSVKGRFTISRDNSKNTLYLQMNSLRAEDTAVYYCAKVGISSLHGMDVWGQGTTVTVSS
VL: B4 VL with S49Y, D50K, A91Y, N92E, T93R, Y94F, S95P, P96W
notes: Tested 'in the form of Fab'
- Kd (human CD22 [2]): 8.1 nM
- Response (human CD22 [2]): 0.19 nm
- koff (human CD22 [2]): 0.0017 s⁻¹
- kon (human CD22 [2]): 210000 M⁻¹ s⁻¹

B8: clone 28 CAR (CD22-targeted chimeric antigen receptor, clone 28 scFv with CD8α hinge and transmembrane region, 4-1BB and CD3z), on reporter cells or CAR-T cells (other)
chain: QVQLQESGPGLVKPSETLSLTCTVSGGSISSYYWSWIRQPAGKGLEWIGRIYTSGSTNYNPSLKSRVTMSVDTSKNQFSLKLSSVTAADTAVYYCARDLYRDGMDVWGQGTTVTVSSGGGGSGGGGSGGGGSDIQMTQSPSTLSASVGDRVTITCRASQSISSWLAWYQQKPGKAPKLLISDASSLESGVPSRFSGSGSGTEFTLTISSLQPDDFATYYCQQANTYSPTFGGGTKVEIKFVPVFLPAKPTTTPAPRPPTPAPTIASQPLSLRPEACRPAAGGAVHTRGLDFACDIYIWAPLAGTCGVLLLSLVITLYCNHRNKRGRKKLLYIFKQPFMRPVQTTQEEDGCSCRFPEEEEGGCELRVKFSRSADAPAYQQGQNQLYNELNLGRREEYDVLDKRRGRDPEMGGKPRRKNPQEGLYNELQKDKMAEAYSEIGMKGERRRGKGHDGLYQGLSTATKDTYDALHMQALPPRGSGEGRGSLLTCGDVEENPG
notes: Chimeric antigen receptor on the cell surface; The entry ends with GSG and the T2A remnant; also called clone28-bbz
- percent of cells in Q1 (FITC-CD22 positive, APC-CD8 negative) [3]: 23.3%
- percent of cells in Q2 (FITC-CD22 positive, APC-CD8 positive) [3]: 12.7%
- in vitro cell killing efficiency, target cells NALM6-ffLuc, 17 h, E:T 0.5:1 [4]: -26.8%
- in vitro cell killing efficiency, target cells NALM6-ffLuc, 17 h, E:T 1:1 [4]: 13.8%
- in vitro cell killing efficiency, target cells NALM6-ffLuc, 17 h, E:T 2:1 [4]: 76.1%
- in vitro cell killing efficiency, target cells REH-ffLuc, 17 h, E:T 0.5:1 [5]: -50.1%
- in vitro cell killing efficiency, target cells REH-ffLuc, 17 h, E:T 1:1 [5]: -23.9%
- in vitro cell killing efficiency, target cells REH-ffLuc, 17 h, E:T 2:1 [5]: 63.8%
- positive rate of CD107a in the CD8+/CAR+ cell population, target cell 3D11 (CD22 knockout/knockdown Raji) [6]: 16.9%
- positive rate of CD107a in the CD8+/CAR+ cell population, target cell JVM2 [6]: 43.5%
- positive rate of CD107a in the CD8+/CAR+ cell population, target cell NALM6 [6]: 73.5%
- positive rate of CD107a in the CD8+/CAR+ cell population, target cell REH [6]: 70.4%
- positive rate of CD107a in the CD8+/CAR+ cell population, target cell raji [6]: 54.8%

From patent publication US12448453 (NANJING IASO BIOTECHNOLOGY, dated 2025)
